From US20220098591, “STEM-LOOP COMPOSITIONS AND METHODS FOR INHIBITING VASCULAR ENDOTHELIAL GROWTN FACTOR” (DRIVE THERAPEUTICS LLC, published 2022)
Positions count from the first letter of the chain named.

B1: Aptamer 126 (ssRNA)
RNA: AGGCCGUCUCCGCGCGGAGGGGUUUCAUUAUCCCGUUUGACGGCUU
modifications: all G 2'-F; A,C,U 2'-OMe; 5' C6NH2; 3' idT
B2: Aptamer 166 (ssRNA)
RNA: B1 RNA with U7C, U36C, A40G
modifications: all G 2'-F; A,C,U 2'-OMe; 5' C6NH2; 3' idT
B3: Aptamer 131 (ssRNA)
RNA: B1 RNA with U7C, G21A, U31C, C32U, A40G
modifications: all G 2'-F; A,C,U 2'-OMe; 5' C6NH2; 3' idT
B4: Aptamer 146 (ssRNA)
RNA: B1 RNA with U7C, U9A, A40G
modifications: all G 2'-F; A,C,U 2'-OMe; 5' C6NH2; 3' idT
B5: Aptamer 150 (ssRNA)
RNA: B1 RNA with U7C, G12C, A40G
modifications: all G 2'-F; A,C,U 2'-OMe; 5' C6NH2; 3' idT
B6: Aptamer 158 (ssRNA)
RNA: B1 RNA with U7C, C15A, A40G
modifications: all G 2'-F; A,C,U 2'-OMe; 5' C6NH2; 3' idT
B7: Aptamer 113 (ssRNA)
RNA: B1 RNA with U7C, G19U, C34A, A40G
modifications: all G 2'-F; A,C,U 2'-OMe; 5' C6NH2; 3' idT
B8: Aptamer 163 (ssRNA)
RNA: B1 RNA with U7C, G35C, A40G
modifications: all G 2'-F; A,C,U 2'-OMe; 5' C6NH2; 3' idT
B9: Aptamer 234 (ssRNA)
RNA: CGACCCGCGCGGAGGGGUUUCAUUAUCCCGUUUGUCG
modifications: G 2'-F except 2'-OMe-G as X in CXAC-Sp3-CCGCGCGGAGGGXUUUCAUUAUCCCGUUUXUCX; A,C,U 2'-OMe; Sp3 joins the two parts; 5' C6NH2; 3' idT
B10: Aptamer 285 (ssRNA)
RNA: B9 RNA with U24A
modifications: G 2'-F except 2'-OMe-G as X in CXAC-Sp3-CCGCGCGGAGGGXUUUCAUAAUCCCGUUUXUCX; A,C,U 2'-OMe; Sp3 joins the two parts; 5' C6NH2; 3' idT
B11: Aptamer 137 (ssRNA)
RNA: AGGCCGAACCGCGCGGAGGGGUUUCAUUAUCCCGUUUUUCGGCUU
modifications: all G 2'-F; A,C,U 2'-OMe; Sp3 joins the two parts; 5' C6NH2; 3' idT
B12: Aptamer 143 (ssRNA)
RNA: B11 RNA with A7C, U39G
modifications: all G 2'-F; A,C,U 2'-OMe; Sp3 joins the two parts; 5' C6NH2; 3' idT
B13: Aptamer 138 (ssRNA)
RNA: B11 RNA with A8U, U38A
modifications: all G 2'-F; A,C,U 2'-OMe; Sp3 joins the two parts; 5' C6NH2; 3' idT
B14: Aptamer 187 (ssRNA)
RNA: B11 RNA with A8C, U30C, U38G
modifications: all G 2'-F; A,C,U 2'-OMe; Sp3 joins the two parts; 5' C6NH2; 3' idT
B15: Aptamer 139 (ssRNA)
RNA: B11 RNA with A7U, U39A
modifications: all G 2'-F; A,C,U 2'-OMe; Sp3 joins the two parts; 5' C6NH2; 3' idT
B16: Aptamer 142 (ssRNA)
RNA: B11 RNA with A7U, A8C, U38G, U39A
modifications: all G 2'-F; A,C,U 2'-OMe; Sp3 joins the two parts; 5' C6NH2; 3' idT
B17: Aptamer 144 (ssRNA)
RNA: B11 RNA with A7C, A8U, U38A, U39G
modifications: all G 2'-F; A,C,U 2'-OMe; Sp3 joins the two parts; 5' C6NH2; 3' idT
B18: Aptamer 108 (ssRNA)
RNA: AGGCCGCCUCCGCGCGGAGGGGUUCAUUUCCCGUUUGGCGGCUU
modifications: all G 2'-F; A,C,U 2'-OMe; 5' C6NH2; 3' idT
B19: Aptamer 63 (ssRNA)
RNA: AGGCCGCCUCCGCGCGGAGGGGUUCAUUAUCCCGUUUGGCGGCUU
modifications: all G 2'-F; A,C,U 2'-OMe; Sp3 joins the two parts; 5' C6NH2; 3' idT
B20: Aptamer 68 (ssRNA)
RNA: B19 RNA with C25U, A26C, U27A, A29U
modifications: all G 2'-F; A,C,U 2'-OMe; Sp3 joins the two parts; 5' C6NH2; 3' idT
B21: Aptamer 65 (ssRNA)
RNA: B19 RNA with C25U, A26C
modifications: all G 2'-F; A,C,U 2'-OMe; Sp3 joins the two parts; 5' C6NH2; 3' idT
B22: Aptamer 67 (ssRNA)
RNA: B19 RNA with C25U, A26C, U27A
modifications: all G 2'-F; A,C,U 2'-OMe; Sp3 joins the two parts; 5' C6NH2; 3' idT
B23: Aptamer 66 (ssRNA)
RNA: B19 RNA with C25U, A26C, U27A
modifications: all G 2'-F; A,C,U 2'-OMe; Sp3 joins the two parts; 5' C6NH2; 3' idT

Assays:
Test in all cases: competition; TR-FRET
Conditions in all cases: tags: glycan-biotinylated for SPR/FRET/AlphaLISA; Acro BioSystems, Biolegend; chain copies: 2 (stated)
VEGF-A121 [1] = target: T1, VEGF-A121 (Homo sapiens, UniProt P15692 SEQ:1-121)
Experimental: (§1) Briefly, for competition TR-FRET, 2-fold dilutions of thermally equilibrated aptamers were made in TR-FRET Buffer (50 mM MOPS, pH 7.4, 125 mM NaCl, 5 mM KCl, 50 μM CHAPS, 0.1 mg/mL BSA, 1 mM CaCl₂, and 1 mM MgCl₂). 5 μL of aptamer or control solution was added to a 15 μL mix of glycan biotinylated […] (5 nM final), ALEXA FLUOR® 647-labeled Aptamer (30 nM final), and Streptavidin-Eu (Perkin Elmer; 2.5 nM final) in a black wall low volume 384 well plate (Greiner). For control, 5 μl of 1000-fold excess of unlabeled parent aptamer or 5 μl TR-FRET buffer alone was added to the mix of ALEXA FLUOR® 647-labeled aptamer, biotin-VEGF-A, and Streptavidin-Eu. The plate was covered with a plate seal and subsequently incubated in the dark for 1 hour at room temperature. The plate was read on a Biotek CYTATION™ 5 plate reader. Samples were excited at 330 nm and fluorescent values were collected at 665 nm. Data analysis was performed by subtracting the background value and plotting as percent inhibition, normalized to baseline in the absence of competitor. The values were fit by [Inhibitor] vs. response-Variable slope (four parameters) using GraphPad Prism Version 7.0 and then normalized to aptamer control to obtain an IC₅₀ relative to parent aptamer. Data is presented as log values of relative IC₅₀.
Activity of each of these variants were tested using a time resolved competition TR-FRET assay, as described in Example 7, in which a labeled parent was competed with increasing concentrations of unlabeled variants for binding to VEGF-A₁₂₁.

VEGF-A121 [2] = target: T1, VEGF-A121; remark: listed apart in the source
Target sequence in this assay (P15692 other isoform, or with tags, fused parts or gaps): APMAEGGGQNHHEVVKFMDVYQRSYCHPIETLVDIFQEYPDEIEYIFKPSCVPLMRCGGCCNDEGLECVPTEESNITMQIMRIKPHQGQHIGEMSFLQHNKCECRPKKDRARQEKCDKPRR

VEGF-A121 [3] = target: T1, VEGF-A121; remark: listed apart in the source
Experimental: as §1

Binder | binding signal (VEGF-A121 [1]) | binding result (VEGF-A121 [2]) | also measured
B1 |  |  | binding result (VEGF-A121 [1]): binds
B2 |  |  | binding result (VEGF-A121 [1]): binds
B3 | > 100 fold worse IC50 vs Aptamer 26 |  | 
B4 | ~3 fold better IC50 vs Aptamer 26 |  | 
B5 | > 100 fold worse IC50 vs Aptamer 26 |  | 
B6 | > 100 fold worse IC50 vs Aptamer 26 |  | 
B7 | > 100 fold worse IC50 vs Aptamer 26 |  | 
B8 | > 100 fold worse IC50 vs Aptamer 26 |  | 
B9 |  | binds | 
B10 |  |  | binding signal (VEGF-A121 [3]): ~10 fold better IC50 vs Aptamer 141
B11 |  | binds | 
B12 |  | binds | 
B13 |  | binds | 
B14 |  | binds | 
B15 |  | binds | 
B16 |  | binds | 
B17 |  | binds | 
B18 | > 100 fold worse IC50 vs Aptamer 26 |  | 
B19 |  |  | binding result (VEGF-A121 [3]): binds
B20 |  |  | binding signal (VEGF-A121 [3]): > 100 fold worse IC50 vs Aptamer 26
B21 |  |  | binding result (VEGF-A121 [3]): binds
B22 |  |  | binding result (VEGF-A121 [3]): binds
B23 |  |  | binding result (VEGF-A121 [3]): binds
